In patent US20080175878:

Tests used:
[1] = target: blood clotting factor VIII, P00451
[2] = target: single chain urokinase plasminogen activator, P00749
[3] = target: T1, blood clotting factor VII, P08709
T1 chain: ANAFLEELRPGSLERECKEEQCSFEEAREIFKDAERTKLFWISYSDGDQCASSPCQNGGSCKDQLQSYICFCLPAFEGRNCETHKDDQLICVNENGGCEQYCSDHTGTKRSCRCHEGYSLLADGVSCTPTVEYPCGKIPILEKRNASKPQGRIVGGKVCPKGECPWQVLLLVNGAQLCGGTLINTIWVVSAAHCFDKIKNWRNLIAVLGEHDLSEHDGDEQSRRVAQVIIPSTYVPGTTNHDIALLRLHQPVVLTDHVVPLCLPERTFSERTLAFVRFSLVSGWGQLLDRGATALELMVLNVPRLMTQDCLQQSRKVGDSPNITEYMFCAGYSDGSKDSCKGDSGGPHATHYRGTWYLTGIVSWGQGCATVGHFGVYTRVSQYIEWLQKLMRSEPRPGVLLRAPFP

[4] = target: blood clotting factor V, P12259
Sequence of blood clotting factor V, P12259 (P12259 29-2224): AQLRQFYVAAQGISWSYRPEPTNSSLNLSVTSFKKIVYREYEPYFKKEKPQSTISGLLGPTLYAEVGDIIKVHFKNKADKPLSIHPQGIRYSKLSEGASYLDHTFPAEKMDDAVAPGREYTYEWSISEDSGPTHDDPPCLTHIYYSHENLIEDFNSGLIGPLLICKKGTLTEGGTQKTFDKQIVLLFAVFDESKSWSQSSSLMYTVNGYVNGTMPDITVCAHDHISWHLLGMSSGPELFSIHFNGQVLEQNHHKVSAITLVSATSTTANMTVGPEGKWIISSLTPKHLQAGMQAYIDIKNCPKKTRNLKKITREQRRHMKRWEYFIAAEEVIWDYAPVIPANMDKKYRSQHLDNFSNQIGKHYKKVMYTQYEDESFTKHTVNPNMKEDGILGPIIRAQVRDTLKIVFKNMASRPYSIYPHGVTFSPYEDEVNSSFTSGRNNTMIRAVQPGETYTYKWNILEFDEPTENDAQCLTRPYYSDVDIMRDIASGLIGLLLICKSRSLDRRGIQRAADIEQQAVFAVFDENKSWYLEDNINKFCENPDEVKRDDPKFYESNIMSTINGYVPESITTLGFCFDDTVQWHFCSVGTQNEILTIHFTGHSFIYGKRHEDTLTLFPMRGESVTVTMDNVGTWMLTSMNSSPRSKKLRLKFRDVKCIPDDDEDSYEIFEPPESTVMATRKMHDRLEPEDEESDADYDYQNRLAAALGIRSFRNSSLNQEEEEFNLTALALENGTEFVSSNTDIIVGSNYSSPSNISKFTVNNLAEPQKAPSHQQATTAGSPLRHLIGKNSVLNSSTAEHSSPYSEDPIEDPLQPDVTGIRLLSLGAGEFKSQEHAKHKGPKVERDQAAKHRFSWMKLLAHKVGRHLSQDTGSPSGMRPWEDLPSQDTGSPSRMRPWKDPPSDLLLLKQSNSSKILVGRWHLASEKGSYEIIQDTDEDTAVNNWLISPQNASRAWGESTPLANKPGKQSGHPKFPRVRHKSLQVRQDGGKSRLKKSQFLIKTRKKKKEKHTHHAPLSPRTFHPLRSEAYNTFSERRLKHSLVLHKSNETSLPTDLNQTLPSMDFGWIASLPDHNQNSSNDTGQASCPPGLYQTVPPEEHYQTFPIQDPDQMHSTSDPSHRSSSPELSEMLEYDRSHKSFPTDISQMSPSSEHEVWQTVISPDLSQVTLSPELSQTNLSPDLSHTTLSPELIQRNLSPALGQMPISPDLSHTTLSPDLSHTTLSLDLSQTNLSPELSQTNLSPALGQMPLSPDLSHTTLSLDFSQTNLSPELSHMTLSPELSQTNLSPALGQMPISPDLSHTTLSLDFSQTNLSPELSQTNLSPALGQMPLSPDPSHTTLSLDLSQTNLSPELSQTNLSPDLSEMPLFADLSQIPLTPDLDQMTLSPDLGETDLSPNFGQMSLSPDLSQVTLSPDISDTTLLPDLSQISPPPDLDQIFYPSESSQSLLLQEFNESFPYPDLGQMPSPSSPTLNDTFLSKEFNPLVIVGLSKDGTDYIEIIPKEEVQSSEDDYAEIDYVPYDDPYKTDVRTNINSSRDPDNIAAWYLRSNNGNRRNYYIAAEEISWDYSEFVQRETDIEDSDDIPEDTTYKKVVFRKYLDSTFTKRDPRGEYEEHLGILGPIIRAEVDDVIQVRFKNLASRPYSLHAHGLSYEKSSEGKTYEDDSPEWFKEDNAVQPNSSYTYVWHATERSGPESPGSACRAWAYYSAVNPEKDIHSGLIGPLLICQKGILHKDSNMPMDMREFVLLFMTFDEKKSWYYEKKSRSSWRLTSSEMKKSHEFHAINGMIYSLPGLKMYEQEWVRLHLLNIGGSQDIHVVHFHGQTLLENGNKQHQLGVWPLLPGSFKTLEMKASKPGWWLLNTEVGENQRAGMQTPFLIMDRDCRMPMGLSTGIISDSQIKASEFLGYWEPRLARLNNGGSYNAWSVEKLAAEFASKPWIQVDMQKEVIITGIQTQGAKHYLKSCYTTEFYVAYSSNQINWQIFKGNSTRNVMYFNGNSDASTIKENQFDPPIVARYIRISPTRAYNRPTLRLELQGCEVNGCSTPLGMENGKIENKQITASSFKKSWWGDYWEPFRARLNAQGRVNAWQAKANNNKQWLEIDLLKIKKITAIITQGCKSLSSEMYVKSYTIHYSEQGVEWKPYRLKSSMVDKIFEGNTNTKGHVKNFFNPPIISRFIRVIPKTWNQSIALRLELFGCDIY

[5] = target: single chain tissue plasminogen activator, P00750
Sequence of single chain tissue plasminogen activator, P00750 (P00750 36-562): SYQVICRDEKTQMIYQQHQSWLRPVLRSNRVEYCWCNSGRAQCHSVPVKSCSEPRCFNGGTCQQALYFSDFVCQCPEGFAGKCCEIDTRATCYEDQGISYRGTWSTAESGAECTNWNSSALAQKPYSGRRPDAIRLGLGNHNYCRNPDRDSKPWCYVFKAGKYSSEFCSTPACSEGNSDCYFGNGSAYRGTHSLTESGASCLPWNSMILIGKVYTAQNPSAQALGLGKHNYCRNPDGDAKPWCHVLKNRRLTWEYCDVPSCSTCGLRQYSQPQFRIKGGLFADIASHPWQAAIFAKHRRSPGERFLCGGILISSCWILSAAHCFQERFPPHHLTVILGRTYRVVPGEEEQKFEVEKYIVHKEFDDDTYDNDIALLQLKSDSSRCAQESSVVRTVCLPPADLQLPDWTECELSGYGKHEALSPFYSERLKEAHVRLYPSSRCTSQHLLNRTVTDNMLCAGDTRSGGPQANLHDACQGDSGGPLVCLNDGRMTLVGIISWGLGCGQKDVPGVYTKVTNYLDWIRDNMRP

Sequence of blood clotting factor VIII, P00451 (P00451 whole entry, looked up): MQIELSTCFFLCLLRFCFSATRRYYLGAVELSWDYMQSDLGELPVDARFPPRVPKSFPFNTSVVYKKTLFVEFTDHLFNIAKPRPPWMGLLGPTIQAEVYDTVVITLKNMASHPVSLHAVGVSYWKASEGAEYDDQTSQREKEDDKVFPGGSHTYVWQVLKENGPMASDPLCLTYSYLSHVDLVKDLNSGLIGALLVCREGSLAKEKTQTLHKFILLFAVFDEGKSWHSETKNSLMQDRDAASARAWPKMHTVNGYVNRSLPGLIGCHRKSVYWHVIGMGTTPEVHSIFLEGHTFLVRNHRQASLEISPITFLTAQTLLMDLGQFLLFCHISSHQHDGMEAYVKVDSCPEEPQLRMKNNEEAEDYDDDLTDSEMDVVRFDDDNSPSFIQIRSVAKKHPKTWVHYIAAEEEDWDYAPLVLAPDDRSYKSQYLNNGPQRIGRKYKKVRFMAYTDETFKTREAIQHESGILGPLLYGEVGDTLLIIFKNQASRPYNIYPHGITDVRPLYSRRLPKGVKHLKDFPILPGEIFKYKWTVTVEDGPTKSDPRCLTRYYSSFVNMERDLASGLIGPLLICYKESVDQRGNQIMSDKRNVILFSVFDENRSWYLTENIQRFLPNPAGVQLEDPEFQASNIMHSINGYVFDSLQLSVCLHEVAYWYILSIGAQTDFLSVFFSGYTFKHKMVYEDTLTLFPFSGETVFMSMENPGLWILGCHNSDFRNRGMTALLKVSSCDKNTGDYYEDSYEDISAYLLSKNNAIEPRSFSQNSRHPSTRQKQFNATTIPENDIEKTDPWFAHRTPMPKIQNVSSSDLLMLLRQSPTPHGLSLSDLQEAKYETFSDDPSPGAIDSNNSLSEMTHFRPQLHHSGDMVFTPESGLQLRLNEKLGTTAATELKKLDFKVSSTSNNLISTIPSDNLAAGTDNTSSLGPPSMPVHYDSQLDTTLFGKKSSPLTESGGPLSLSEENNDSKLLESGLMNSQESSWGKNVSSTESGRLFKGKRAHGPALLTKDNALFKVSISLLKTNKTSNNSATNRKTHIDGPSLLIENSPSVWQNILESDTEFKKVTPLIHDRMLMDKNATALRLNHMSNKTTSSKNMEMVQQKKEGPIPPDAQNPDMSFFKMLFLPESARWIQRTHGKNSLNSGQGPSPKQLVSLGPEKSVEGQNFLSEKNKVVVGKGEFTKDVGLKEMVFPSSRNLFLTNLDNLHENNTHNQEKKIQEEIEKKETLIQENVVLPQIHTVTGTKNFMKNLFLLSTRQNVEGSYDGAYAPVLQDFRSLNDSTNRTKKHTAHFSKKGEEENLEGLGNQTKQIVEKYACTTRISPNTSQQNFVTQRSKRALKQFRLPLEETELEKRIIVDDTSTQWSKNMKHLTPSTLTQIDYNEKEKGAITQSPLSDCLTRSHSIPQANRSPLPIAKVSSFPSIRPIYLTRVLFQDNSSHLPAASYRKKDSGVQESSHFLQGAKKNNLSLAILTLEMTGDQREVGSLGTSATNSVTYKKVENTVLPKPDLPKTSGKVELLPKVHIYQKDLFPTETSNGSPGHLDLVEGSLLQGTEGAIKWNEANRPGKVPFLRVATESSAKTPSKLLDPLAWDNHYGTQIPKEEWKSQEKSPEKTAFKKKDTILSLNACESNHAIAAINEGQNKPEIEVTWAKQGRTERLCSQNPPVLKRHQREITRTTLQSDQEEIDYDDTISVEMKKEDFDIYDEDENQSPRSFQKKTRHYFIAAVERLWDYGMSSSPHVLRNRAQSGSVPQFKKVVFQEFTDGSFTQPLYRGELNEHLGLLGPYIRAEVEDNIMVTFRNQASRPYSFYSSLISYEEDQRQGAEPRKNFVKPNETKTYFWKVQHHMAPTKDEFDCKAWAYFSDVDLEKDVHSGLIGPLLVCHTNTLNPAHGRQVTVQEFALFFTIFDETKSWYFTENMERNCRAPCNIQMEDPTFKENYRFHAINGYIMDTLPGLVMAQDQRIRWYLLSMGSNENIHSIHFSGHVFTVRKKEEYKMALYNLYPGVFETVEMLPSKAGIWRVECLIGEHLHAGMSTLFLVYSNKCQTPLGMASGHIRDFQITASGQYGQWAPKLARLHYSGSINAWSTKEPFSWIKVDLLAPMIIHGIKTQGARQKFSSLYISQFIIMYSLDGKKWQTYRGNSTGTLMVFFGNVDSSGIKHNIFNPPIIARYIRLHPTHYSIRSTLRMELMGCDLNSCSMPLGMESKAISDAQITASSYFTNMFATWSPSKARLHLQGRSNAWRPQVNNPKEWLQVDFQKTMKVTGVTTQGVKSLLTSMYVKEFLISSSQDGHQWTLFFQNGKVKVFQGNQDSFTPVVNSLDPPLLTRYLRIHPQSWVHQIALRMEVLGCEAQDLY

B1: protease for activating the blood clotting factor VII (protein)
chain 1: LLESLDPDWTPDQYDYSYEDYNQEENTSSTLTHAENPDWYYTEDQADPCQPNPCEHGGDCLVHGSTFTCSCLAPFSGNKCQKVQNTCKDNPCGRGQCLITQSPPYYRCVCKHPYTGPSCSQVVPVCRPNPCQNGATCSRHKRRSKFTCACPDQFKGKFCEIGSDDCYVGDGYSYRGKMNRTVNQHACLYWNSHLLLQENYNMFMEDAETHGIGEHNFCRNPDADEKPWCFIKVTNDKVKWEYCDVSACSAQDVAYPEESPTEPSTKLPGFDSCGKTEIAERKIKR
chain 2: not shown
FVIII activity (% of control without protease), FVIII essentially free of vWF, protease 10 µg/ml, CaCl2, 0 min [1]: 97%
FVIII activity (% of control without protease), FVIII essentially free of vWF, protease 10 µg/ml, CaCl2, 5 min [1]: 27%
FVIII activity (% of control without protease), FVIII essentially free of vWF, protease 10 µg/ml, CaCl2, 10 min [1]: 11%
FVIII activity (% of control without protease), FVIII essentially free of vWF, protease 10 µg/ml, CaCl2, 20 min [1]: < 1%
FVIII activity (% of control without protease), FVIII solution containing vWF, protease 10 µg/ml, CaCl2, 0 min [1]: 98%
FVIII activity (% of control without protease), FVIII solution containing vWF, protease 10 µg/ml, CaCl2, 5 min [1]: 16%
FVIII activity (% of control without protease), FVIII solution containing vWF, protease 10 µg/ml, CaCl2, 10 min [1]: 14%
FVIII activity (% of control without protease), FVIII solution containing vWF, protease 10 µg/ml, CaCl2, 20 min [1]: 1%
residual active FVIII (chromogenic FVIII test), 10 min, protease 0.1, 1 and 10 µg/ml [1]: As the protease concentration increased, correspondingly more FVIII was inactivated
residual active FVIII (chromogenic FVIII test), protease 10 µg/ml, incubation time varied [1]: A marked reduction in the residual concentration of active FVIII was seen as the length of incubation increased
share of FVIII spared from the protease at calcium below 0.5 mM [1]: the percentage spared is more than 60%
share of FVIII spared from the protease at calcium below 1 mM [1]: approx. 50% of the FVIII is then spared
Resulting PA activity (S-2444), no stimulant, 2 min, FVII activator 2 µg/ml [2]: 25 Δ mIU/min
Resulting PA activity (S-2444), no stimulant, 2 min, FVII activator 5 µg/ml [2]: 60 Δ mIU/min
Resulting PA activity (S-2444), no stimulant, 2 min, FVII activator 10 µg/ml [2]: 117 Δ mIU/min
Resulting PA activity (S-2444), no stimulant, 5 min, FVII activator 2 µg/ml [2]: 79 Δ mIU/min
Resulting PA activity (S-2444), no stimulant, 5 min, FVII activator 5 µg/ml [2]: 179 Δ mIU/min
Resulting PA activity (S-2444), no stimulant, 5 min, FVII activator 10 µg/ml [2]: 165 Δ mIU/min
Resulting PA activity (S-2444), no stimulant, 10 min, FVII activator 2 µg/ml [2]: 186 Δ mIU/min
Resulting PA activity (S-2444), no stimulant, 10 min, FVII activator 5 µg/ml [2]: 449 Δ mIU/min
Resulting PA activity (S-2444), no stimulant, 10 min, FVII activator 10 µg/ml [2]: 517 Δ mIU/min
Resulting PA activity (S-2444), stimulant CaCl2, 2 min, FVII activator 2 µg/ml [2]: 255 Δ mIU/min
Resulting PA activity (S-2444), stimulant CaCl2, 2 min, FVII activator 5 µg/ml [2]: 370 Δ mIU/min
Resulting PA activity (S-2444), stimulant CaCl2, 2 min, FVII activator 10 µg/ml [2]: 401 Δ mIU/min
Resulting PA activity (S-2444), stimulant CaCl2, 5 min, FVII activator 2 µg/ml [2]: 338 Δ mIU/min
Resulting PA activity (S-2444), stimulant CaCl2, 5 min, FVII activator 5 µg/ml [2]: 424 Δ mIU/min
Resulting PA activity (S-2444), stimulant CaCl2, 5 min, FVII activator 10 µg/ml [2]: 438 Δ mIU/min
Resulting PA activity (S-2444), stimulant CaCl2, 10 min, FVII activator 2 µg/ml [2]: 416 Δ mIU/min
Resulting PA activity (S-2444), stimulant CaCl2, 10 min, FVII activator 5 µg/ml [2]: 445 Δ mIU/min
Resulting PA activity (S-2444), stimulant CaCl2, 10 min, FVII activator 10 µg/ml [2]: 448 Δ mIU/min
Resulting PA activity (S-2444), stimulant heparin, 2 min, FVII activator 2 µg/ml [2]: 190 Δ mIU/min
Resulting PA activity (S-2444), stimulant heparin, 2 min, FVII activator 5 µg/ml [2]: 332 Δ mIU/min
Resulting PA activity (S-2444), stimulant heparin, 2 min, FVII activator 10 µg/ml [2]: 425 Δ mIU/min
Resulting PA activity (S-2444), stimulant heparin, 5 min, FVII activator 2 µg/ml [2]: 330 Δ mIU/min
Resulting PA activity (S-2444), stimulant heparin, 5 min, FVII activator 5 µg/ml [2]: 455 Δ mIU/min
Resulting PA activity (S-2444), stimulant heparin, 5 min, FVII activator 10 µg/ml [2]: 458 Δ mIU/min
Resulting PA activity (S-2444), stimulant heparin, 10 min, FVII activator 2 µg/ml [2]: 417 Δ mIU/min
Resulting PA activity (S-2444), stimulant heparin, 10 min, FVII activator 5 µg/ml [2]: 462 Δ mIU/min
Resulting PA activity (S-2444), stimulant heparin, 10 min, FVII activator 10 µg/ml [2]: 460 Δ mIU/min
FVII activation factor (x control), protease solution diluted 1:5, 5 min at RT (x times control) [3]: 2.6
FVII activation factor (x control), protease solution diluted 1:10, 5 min at RT (x times control) [3]: 2
FVII activation factor (x control), protease solution diluted 1:20, 5 min at RT (x times control) [3]: 1.6
FVII activation factor, 0.2 IU FVII/ml + 1:10 protease solution, incubation 0 min (x times control) [3]: 1
FVII activation factor, 0.2 IU FVII/ml + 1:10 protease solution, incubation 2.5 min (x times control) [3]: 1.3
FVII activation factor, 0.2 IU FVII/ml + 1:10 protease solution, incubation 5.0 min (x times control) [3]: 2
FVII activation factor, 0.2 IU FVII/ml + 1:10 protease solution, incubation 10.0 min (x times control) [3]: 2.8
FVII activation factor, 0.2 IU FVII/ml + 1:10 protease solution, incubation 40.0 min (x times control) [3]: < 3.8
FVIIa content (Staclot FVIIa-rTF test) after protease + FVII, 10 min, then aprotinin [3]: 18 mlU of FVIIa/ml
FVIIa formed by the action of the protease, after subtracting the base value [3]: 8 mlU of FVIIa/ml have therefore been formed by the action of the protease
Residual FV activity, protease 10 µg/ml, incubation 20 min [4]: 100
Residual FV activity, protease 10 µg/ml, incubation column headed 0 (min) [4]: 93
Residual FV activity, protease 10 µg/ml, incubation column headed 0 (min), second column [4]: 91
Residual FV activity, protease 30 µg/ml, incubation 20 min [4]: 28
Residual FV activity, protease 30 µg/ml, incubation column headed 0 (min) [4]: 100
Residual FV activity, protease 30 µg/ml, incubation column headed 0 (min), second column [4]: 93
Residual FV activity, protease 100 µg/ml, incubation 20 min [4]: 13
Residual FV activity, protease 100 µg/ml, incubation column headed 0 (min) [4]: 100
Residual FV activity, protease 100 µg/ml, incubation column headed 0 (min), second column [4]: 29
PA activity (S-2444), 20 min at 37° C., heparin 100 IU/ml, FVII activator 50 µg/ml [5]: 33.6 Δ mIU/min
PA activity (S-2444), 20 min at 37° C., heparin 100 IU/ml, FVII activator 100 µg/ml [5]: 51 Δ mIU/min
PA activity (S-2444), 20 min at 37° C., heparin 100 IU/ml, FVII activator 200 µg/ml [5]: 71.9 Δ mIU/min
PA activity (S-2444), 20 min at 37° C., stimulant: CaCl2 [5]: 25.3 Δ mIU/min
PA activity (S-2444), 20 min at 37° C., stimulant: heparin [5]: 63.8 Δ mIU/min
PA activity (S-2444), 20 min at 37° C., stimulant: none [5]: 5.9 Δ mIU/min
Resulting PA activity (S-2444), sctPA 100 µg/ml, incubation 1 min (FVII activator concentration not given) [5]: 10.2 Δ mIU/min
Resulting PA activity (S-2444), sctPA 100 µg/ml, incubation 2 min (FVII activator concentration not given) [5]: 16.8 Δ mIU/min
Resulting PA activity (S-2444), sctPA 100 µg/ml, incubation 5 min (FVII activator concentration not given) [5]: 38.8 Δ mIU/min
Resulting PA activity (S-2444), sctPA 100 µg/ml, incubation 10 min (FVII activator concentration not given) [5]: 60.2 Δ mIU/min
Resulting PA activity (S-2444), sctPA 100 µg/ml, incubation 20 min (FVII activator concentration not given) [5]: 73.3 Δ mIU/min
